Measured values taken from paper PMC2192062.

Target: H-2Kb, peptide-free ('empty') MHC class I molecule on RMA-S cells (mouse | mouse (endogenous in RMA-S))
Assay: MHC stabilization assay

Substance “SIINFEKL, CTL epitope derived from ovalbumin (peptide)” has an SI (stabilization index) of 450 to 500.
